Assay results: paper PMC6974733, “Rap1‐mediated nucleosome displacement can regulate gene expression in senescent cells without impacting the pace of senescence”

Key:
Rap1 [1] = biological target: T1, Rap1 (Saccharomyces cerevisiae? (budding …, UniProt P11938 1-827)); test: EMSA; 5-50 nM protein; affinity similar to Rap1SHY; 20 mM Hepes-KOH pH 8, 100 mM KCl, 10 ug/ml BSA, 1 mM EDTA, 2 mM MgCl2, 5% glycerol, 30 min at room temperature; 0.5 nM 32P duplex; 6% gel run at 4 C; concentrations of active protein (~85% active); conditions: protein: recombinant; tags: N-terminal GST, C-terminal 6xHis (Ni-NTA and GST resin purified); label: 32P 5' end label on one strand (PNK); blunt
T1 sequence: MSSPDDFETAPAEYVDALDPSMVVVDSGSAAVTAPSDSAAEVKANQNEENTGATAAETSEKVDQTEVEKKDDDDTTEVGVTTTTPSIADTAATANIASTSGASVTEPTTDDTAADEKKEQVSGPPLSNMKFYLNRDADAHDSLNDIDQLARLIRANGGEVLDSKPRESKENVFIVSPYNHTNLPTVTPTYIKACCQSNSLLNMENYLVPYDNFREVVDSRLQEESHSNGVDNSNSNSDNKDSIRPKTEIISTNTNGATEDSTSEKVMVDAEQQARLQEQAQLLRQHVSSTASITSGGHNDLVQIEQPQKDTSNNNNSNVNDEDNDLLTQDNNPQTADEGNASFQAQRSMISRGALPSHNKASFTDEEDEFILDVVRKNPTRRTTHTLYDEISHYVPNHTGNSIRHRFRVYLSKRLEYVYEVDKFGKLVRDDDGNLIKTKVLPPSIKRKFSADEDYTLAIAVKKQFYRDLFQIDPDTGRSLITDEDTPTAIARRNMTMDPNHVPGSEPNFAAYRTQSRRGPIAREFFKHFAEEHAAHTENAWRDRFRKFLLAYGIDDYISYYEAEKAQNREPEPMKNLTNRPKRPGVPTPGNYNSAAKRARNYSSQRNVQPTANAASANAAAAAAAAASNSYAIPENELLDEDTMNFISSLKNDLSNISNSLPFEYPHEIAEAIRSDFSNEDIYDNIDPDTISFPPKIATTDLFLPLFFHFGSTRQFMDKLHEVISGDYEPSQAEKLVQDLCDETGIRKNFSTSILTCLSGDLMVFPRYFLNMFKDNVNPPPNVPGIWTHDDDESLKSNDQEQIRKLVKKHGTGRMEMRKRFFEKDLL

Rap1SHY [2] = biological target: T2, Rap1SHY (Saccharomyces cerevisiae? (budding …, UniProt P11938 1-827, S392A;H393A;Y394A)); test: EMSA; 5-50 nM protein; affinity similar to Rap1; 20 mM Hepes-KOH pH 8, 100 mM KCl, 10 ug/ml BSA, 1 mM EDTA, 2 mM MgCl2, 5% glycerol, 30 min at room temperature; 0.5 nM 32P duplex; 6% gel run at 4 C; concentrations of active protein (~85% active); conditions: protein: recombinant; tags: N-terminal GST, C-terminal 6xHis (pGST-RAP1 SHY-6xHis); label: 32P 5' end label on one strand (PNK); blunt
T2 sequence: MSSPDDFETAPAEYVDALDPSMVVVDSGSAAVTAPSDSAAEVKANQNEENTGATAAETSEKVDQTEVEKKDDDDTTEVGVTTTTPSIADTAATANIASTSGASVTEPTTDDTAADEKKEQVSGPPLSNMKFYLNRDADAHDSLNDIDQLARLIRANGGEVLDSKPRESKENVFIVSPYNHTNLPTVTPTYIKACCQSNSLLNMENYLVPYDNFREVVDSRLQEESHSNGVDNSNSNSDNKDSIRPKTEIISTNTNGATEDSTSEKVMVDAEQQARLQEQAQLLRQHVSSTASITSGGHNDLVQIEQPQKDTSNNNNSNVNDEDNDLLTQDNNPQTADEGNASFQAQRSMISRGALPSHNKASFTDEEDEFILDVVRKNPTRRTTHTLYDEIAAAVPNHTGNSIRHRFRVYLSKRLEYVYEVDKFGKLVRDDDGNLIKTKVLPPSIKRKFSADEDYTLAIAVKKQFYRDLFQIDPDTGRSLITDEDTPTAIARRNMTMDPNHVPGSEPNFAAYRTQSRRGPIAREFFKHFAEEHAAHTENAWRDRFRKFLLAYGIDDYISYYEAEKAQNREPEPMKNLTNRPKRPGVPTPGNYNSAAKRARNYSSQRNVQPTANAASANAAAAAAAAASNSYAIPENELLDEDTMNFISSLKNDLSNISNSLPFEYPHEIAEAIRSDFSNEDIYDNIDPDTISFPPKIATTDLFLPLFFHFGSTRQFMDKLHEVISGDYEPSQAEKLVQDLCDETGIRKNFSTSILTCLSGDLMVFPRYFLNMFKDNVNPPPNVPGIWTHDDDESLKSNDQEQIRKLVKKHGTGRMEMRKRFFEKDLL

Rap1SHY [3] = biological target: T2, Rap1SHY; test: EMSA; 5-500 nM protein; affinity similar to Rap1; 20 mM Hepes-KOH pH 8, 100 mM KCl, 10 ug/ml BSA, 1 mM EDTA, 2 mM MgCl2, 5% glycerol, 30 min at room temperature; 0.5 nM 32P duplex; 6% gel run at 4 C; concentrations of active protein (~85% active); conditions: protein: recombinant; tags: N-terminal GST, C-terminal 6xHis (pGST-RAP1 SHY-6xHis); label: 32P 5' end label on one strand (PNK); blunt
Rap1 [4] = biological target: T1, Rap1; test: EMSA; 5-500 nM protein; affinity similar to Rap1SHY; 20 mM Hepes-KOH pH 8, 100 mM KCl, 10 ug/ml BSA, 1 mM EDTA, 2 mM MgCl2, 5% glycerol, 30 min at room temperature; 0.5 nM 32P duplex; 6% gel run at 4 C; concentrations of active protein (~85% active); conditions: protein: recombinant; tags: N-terminal GST, C-terminal 6xHis (Ni-NTA and GST resin purified); label: 32P 5' end label on one strand (PNK); blunt
[5] = biological target: histone H3/H4 tetramers, P61830;P02309; test: GST pull-down, H3 immunoblot quantitation; conditions: chain shown with the change, read off a plot; for response: 2 μM Rap1 truncated constructs, 2 μM H3/H4, 400 mM NaCl, N = 3, scale: relative H3 signal; for ratio to parent: 0.5 μM GST-SANT, 0.5 μM histones, 400 mM NaCl, N = 2, parent: est. 1.0
Rap1 [6] = biological target: T1, Rap1; test: EMSA; 0.5-100 nM protein; lower affinity than Rap1SHY; 20 mM Hepes-KOH pH 8, 100 mM KCl, 10 ug/ml BSA, 1 mM EDTA, 2 mM MgCl2, 5% glycerol, 30 min at room temperature; 0.5 nM 32P duplex; 6% gel run at 4 C; concentrations of active protein (~85% active); conditions: protein: recombinant; tags: N-terminal GST, C-terminal 6xHis (Ni-NTA and GST resin purified); label: 32P 5' end label on one strand (PNK); blunt
Rap1SHY [7] = biological target: T2, Rap1SHY; test: EMSA; 0.5-100 nM protein; higher affinity than Rap1; 20 mM Hepes-KOH pH 8, 100 mM KCl, 10 ug/ml BSA, 1 mM EDTA, 2 mM MgCl2, 5% glycerol, 30 min at room temperature; 0.5 nM 32P duplex; 6% gel run at 4 C; concentrations of active protein (~85% active); conditions: protein: recombinant; tags: N-terminal GST, C-terminal 6xHis (pGST-RAP1 SHY-6xHis); label: 32P 5' end label on one strand (PNK); blunt

B1: TEF2 promoter Rap1 site (dsDNA)
DNA 1: TGTTGCACCCACACATTTA
DNA 2: TAAATGTGTGGGTGCAACA
B1: binds (Rap1 [1]); binds (Rap1SHY [2]).

B2: GAC1 NRTS promoter (dsDNA)
DNA 1: AATAATACATCACATTAACTGTCTATAAGAGGCTGGTAC
DNA 2: GTACCAGCCTCTTATAGACAGTTAATGTGATGTATTATT
In the case of B2, the “dissociation constant (Kd)” value (Rap1SHY [3]) is reported as ~10 fold vs TEF2 (printed: Kd approximately 10-fold lower than in B; titration range suggests affinity is meant) and the “dissociation constant (Kd)” value (Rap1 [4]) is reported as ~10 fold vs TEF2 (printed: Kd approximately 10-fold lower than in B; titration range suggests affinity is meant).

B3: GST-Rap1^CΔ, P11938 S392A; H393A; Y394A (protein)
chain: MSSPDDFETAPAEYVDALDPSMVVVDSGSAAVTAPSDSAAEVKANQNEENTGATAAETSEKVDQTEVEKKDDDDTTEVGVTTTTPSIADTAATANIASTSGASVTEPTTDDTAADEKKEQVSGPPLSNMKFYLNRDADAHDSLNDIDQLARLIRANGGEVLDSKPRESKENVFIVSPYNHTNLPTVTPTYIKACCQSNSLLNMENYLVPYDNFREVVDSRLQEESHSNGVDNSNSNSDNKDSIRPKTEIISTNTNGATEDSTSEKVMVDAEQQARLQEQAQLLRQHVSSTASITSGGHNDLVQIEQPQKDTSNNNNSNVNDEDNDLLTQDNNPQTADEGNASFQAQRSMISRGALPSHNKASFTDEEDEFILDVVRKNPTRRTTHTLYDEIAAAVPNHTGNSIRHRFRVYLSKRLEYVYEVDKFGKLVRDDDGNLIKTKVLPPSIKRKFSADEDYTLAIAVKKQFYRDLFQIDPDTGRSLITDEDTPTAIARRNMTMDPNHVPGSEPNFAAYRTQSRRGPIAREFFKHFAEEHAAHTENAWRDRFRKFLLAYGIDDYISYYEAEKAQNREPEPMKNLTNRPKRPGVPTPGNYNSAAKRAR
Binder B3 has a response ([5]; parent: est. 0.68) of 0.47.

B4: GST-SANT, P11938 D389A; E390A; I391A (protein)
chain: KASFTDEEDEFILDVVRKNPTRRTTHTLYAAASHYVPNHTGNSIRHRFRVY
For B4, the ratio to parent [5] was 0.82.

B5: GST-SANT, P11938 H398A; T399A; G400A (protein)
chain: KASFTDEEDEFILDVVRKNPTRRTTHTLYDEISHYVPNAAANSIRHRFRVY
B5 showed a ratio to parent [5] of 0.62.

B6: GST-SANT, P11938 N401A; S402A; I403A (protein)
chain: KASFTDEEDEFILDVVRKNPTRRTTHTLYDEISHYVPNHTGAAARHRFRVY
With B6 the ratio to parent [5] was 0.97.

B7: GST-SANT, P11938 S392A; H393A; Y394A (protein)
chain: KASFTDEEDEFILDVVRKNPTRRTTHTLYDEIAAAVPNHTGNSIRHRFRVY
B7 showed a ratio to parent [5] of 0.21.

B8: TeloA telomeric sequence (dsDNA)
DNA 1: GCCGCACACCCACACACCAGTG
DNA 2: CACTGGTGTGTGGGTGTGCGGC
B8: binds (Rap1 [6]); binds (Rap1SHY [7]).

B9: GST-Rap1^643Δ S392A; H393A; Y394A (protein)
chain: MSSPDDFETAPAEYVDALDPSMVVVDSGSAAVTAPSDSAAEVKANQNEENTGATAAETSEKVDQTEVEKKDDDDTTEVGVTTTTPSIADTAATANIASTSGASVTEPTTDDTAADEKKEQVSGPPLSNMKFYLNRDADAHDSLNDIDQLARLIRANGGEVLDSKPRESKENVFIVSPYNHTNLPTVTPTYIKACCQSNSLLNMENYLVPYDNFREVVDSRLQEESHSNGVDNSNSNSDNKDSIRPKTEIISTNTNGATEDSTSEKVMVDAEQQARLQEQAQLLRQHVSSTASITSGGHNDLVQIEQPQKDTSNNNNSNVNDEDNDLLTQDNNPQTADEGNASFQAQRSMISRGALPSHNKASFTDEEDEFILDVVRKNPTRRTTHTLYDEIAAAVPNHTGNSIRHRFRVYLSKRLEYVYEVDKFGKLVRDDDGNLIKTKVLPPSIKRKFSADEDYTLAIAVKKQFYRDLFQIDPDTGRSLITDEDTPTAIARRNMTMDPNHVPGSEPNFAAYRTQSRRGPIAREFFKHFAEEHAAHTENAWRDRFRKFLLAYGIDDYISYYEAEKAQNREPEPMKNLTNRPKRPGVPTPGNYNSAAKRARNYSSQRNVQPTANAASANAAAAAAAAASNSYAIPENELLDEDT
B9 showed a response ([5]; parent: est. 1.3) of 0.71.
